The supplement of paper PMC12338614
± gives the uncertainty stated by the source.

B1: library; numbered along this chain (parent)
chain: MEVVDPQQLGMFTEGELMSVGMDTFIHRIDSTEVIYQPRRKRAKLIGKYLMGDLLGEGSYGKVKEVLDSETLCRRAVKILKKKKLRRIPNGEANVKKEIQLLRRLRHKNVIQLVDVLYNEEKQKMYMVMEYCVCGMQEMLDSVPEKRFPVCQAHGYFCQLIDGLEYLHSQGIVHKDIKPGNLLLTTGGTLKISDLGVAEALHPFAADDTCRTSQGSPAFQPPEIANGLDTFSGFKVDIWSAGVTLYNITTGLYPFEGDNIYKLFENIGKGSYAIPGDCGPPLSDLLKGMLEYEPAKRFSIRQIRQHSWFRKKHPPAEAPVPIPPSPDTKDRWRSMTVVPYLEDLHGADEDEDLFDIEDDIIYTQDFTVPGQVPEEEASHNGQRRGLPKAVCMNGTEAAQLSTKSRAEGRAPNPARKACSASSKIRRLSACKQQ

Variants of: B1
Assay: STK11 functional score (HeLa growth suppression), rescaled enrichment; synonymous median = 1, nonsense median = 0 (normalised score)
Details: with HeLa; variant type: missense
Summary of the method: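 The values are functional scores: wild-type-corrected log ratios of post- versus pre-selection abundance, rescaled to synonymous and nonsense medians, merged over codons and replicate transfections, and carrying bootstrapped error. They derive from codon-randomised (POPCode), codon-optimised STK11 libraries that Bxb1 integrated at an AAVS1 landing pad in HeLa, with three transfections for each of three regions. Sequencing of tiled gDNA amplicons ran on NextSeq, at ~2 million reads per tile.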

Point of comparison: S307R, STK11 functional score 0.948 ± 0.22. Against it:
- K108H — within error, 1.26 ± 0.3
- E92W — within error, 1.03 ± 0.61
- E92S — within error, 0.979 ± 0.19
- S404L — higher, 1.47 ± 0.25
- A410I — higher, 1.54 ± 0.22
- V34F — within error, 0.976 ± 0.2
- H154M — lower, 0.597 ± 0.088
- E199N — higher, 1.54 ± 0.19
- Y166I — within error, 1.21 ± 0.56
- F219C — within error, 0.557 ± 0.2
- N412G — higher, 1.63 ± 0.15
- N412F — within error, 1.23 ± 0.15
- G15A — within error, 0.969 ± 0.36
- G15R — within error, 1.4 ± 0.4
- G15E — higher, 1.68 ± 0.46
- D343N — within error, 1.02 ± 0.59
- Q112N — higher, 1.55 ± 0.18
- Q112G — within error, 0.967 ± 0.13
- K41S — higher, 1.46 ± 0.16
- K41T — within error, 1.27 ± 0.49
- L164H — lower, 0.0804 ± 0.11
- D208T — within error, 1.04 ± 0.2
- L140E — lower, -0.3 ± 0.087
- R415N — higher, 1.58 ± 0.34
- P89M — higher, 1.55 ± 0.16
- Y292T — higher, 1.68 ± 0.3
- E120N — higher, 1.68 ± 0.39
- K48V — within error, 1.24 ± 0.42
- A316G — within error, 1.25 ± 0.19
- A316Q — higher, 1.53 ± 0.15
- T24H — higher, 1.7 ± 0.17
- R211V — within error, 1.35 ± 0.2
- E351C — within error, 1.06 ± 0.11
- H107Y — lower, 0.262 ± 0.079
- D53A — within error, 1.07 ± 0.12
- L195E — higher, 1.59 ± 0.18
- L195P — higher, 1.49 ± 0.18
- A241S — within error, 0.863 ± 0.15
- Q364G — within error, 0.7 ± 0.2
- E374I — higher, 1.46 ± 0.25
- T185L — within error, 1.08 ± 0.32
- I111Q — higher, 1.66 ± 0.17
- A225P — within error, 1.22 ± 0.62
- I177Y — lower, 0.215 ± 0.075
- I177D — lower, 0.0262 ± 0.27
- R405L — higher, 1.59 ± 0.28
- M125P — lower, 0.267 ± 0.29
- L17V — higher, 1.35 ± 0.12
- L102V — within error, 0.912 ± 0.083
- E33A — within error, 1.32 ± 0.2
- H27S — within error, 0.805 ± 0.23
- R383M — higher, 1.59 ± 0.31
- K78A — lower, -0.0486 ± 0.23
- K78W — lower, -0.148 ± 0.077
- G52A — within error, 0.893 ± 0.16
- D162M — higher, 1.62 ± 0.2
- Y261L — within error, 0.609 ± 0.14
- N266M — lower, 0.331 ± 0.095
- N266T — within error, 0.876 ± 0.28
- E342F — within error, 1.14 ± 0.25
- P144K — higher, 1.63 ± 0.2
- M289D — lower, 0.312 ± 0.18
- M289Y — lower, -0.218 ± 0.07
- V368E — higher, 1.42 ± 0.22
- T395L — within error, 1.23 ± 0.19
- R103T — within error, 1.32 ± 0.27
- P387R — within error, 1.47 ± 0.31
- L341W — within error, 1.25 ± 0.43
- H202N — lower, 0.176 ± 0.17
- G56I — lower, 0.188 ± 0.091
- E357W — within error, 0.957 ± 0.15
- E357C — within error, 1.36 ± 0.37
- G10D — higher, 1.4 ± 0.1
- A76M — lower, -0.216 ± 0.42
- H168E — within error, 1.3 ± 0.24
- H168S — within error, 0.83 ± 0.3
- Q305Y — higher, 1.53 ± 0.17
- R384F — higher, 1.55 ± 0.1
- M139G — lower, 0.563 ± 0.088
- M139S — within error, 0.816 ± 0.1
- L400N — higher, 1.63 ± 0.31
- F148Y — within error, 0.892 ± 0.11
- R86A — within error, 1.26 ± 0.17
- G188F — within error, 0.918 ± 0.27
- F264W — lower, 0.216 ± 0.074
- D30L — within error, 1.07 ± 0.12
- N181E — lower, -0.231 ± 0.13
- G163H — lower, -0.383 ± 0.17
- Q37T — higher, 1.69 ± 0.12
- Q37F — lower, 0.309 ± 0.29
- P413E — higher, 1.59 ± 0.25
- S216T — within error, 0.847 ± 0.13
- D258H — within error, 1.62 ± 0.55
- G385K — higher, 1.6 ± 0.27
- V128A — lower, 0.438 ± 0.1
- A414C — higher, 1.59 ± 0.29
- A414M — higher, 1.56 ± 0.22
- V243P — lower, -0.157 ± 0.11
- N226G — within error, 1.24 ± 0.17
- P339R — within error, 1.16 ± 0.52
- S193V — within error, 0.77 ± 0.24
- L183M — lower, -0.0817 ± 0.087
- C418S — higher, 1.51 ± 0.17
- C418E — higher, 1.58 ± 0.14
- E121Q — within error, 1.08 ± 0.45
- E265R — within error, 1.41 ± 0.3
- I238S — within error, 0.58 ± 0.16
- L45T — within error, 1.27 ± 0.78
- L45A — within error, 0.863 ± 0.17
- T71D — higher, 1.46 ± 0.096
- T71G — higher, 1.48 ± 0.19
- K124G — within error, 1.04 ± 0.36
- T32P — within error, 1.48 ± 0.37
- G279V — within error, 0.88 ± 0.32
- L85I — higher, 1.56 ± 0.2
- E291H — within error, 1.17 ± 0.2
- T13S — lower, 0.282 ± 0.092
- E145G — within error, 0.981 ± 0.099
- P314A — within error, 1.13 ± 0.17
- V66S — within error, 0.975 ± 0.13
- K329L — higher, 1.42 ± 0.25
- E293G — lower, 0.451 ± 0.27
- E293N — higher, 1.55 ± 0.23
- E138K — within error, 1.59 ± 0.56
- L105A — within error, 1.32 ± 0.18
- E317M — lower, 0.316 ± 0.21
- G171I — higher, 1.46 ± 0.18
- C132W — lower, -0.606 ± 0.08
- C132H — within error, 1.16 ± 0.21
- Q7M — lower, 0.16 ± 0.091
- R87Y — higher, 1.6 ± 0.29
- F231C — within error, 1.33 ± 0.24
- F231V — within error, 0.867 ± 0.094
- Y246A — within error, 1.06 ± 0.1
- L290A — lower, 0.0427 ± 0.076
- L290N — lower, -0.076 ± 0.064
- Q399H — within error, 1.13 ± 0.63
- M18P — higher, 1.69 ± 0.13
- A206S — within error, 1.17 ± 0.093
- K388N — within error, 1.53 ± 0.49
- E65S — higher, 1.55 ± 0.19
- A389E — higher, 1.52 ± 0.17
- V320M — within error, 1.47 ± 0.53
- T186C — within error, 1.19 ± 0.2
- K175R — higher, 1.47 ± 0.16
- K175I — lower, 0.589 ± 0.096
- K146D — lower, 0.483 ± 0.13
- N90A — within error, 1.14 ± 0.72
- A198V — higher, 1.38 ± 0.19
- R297D — lower, 0.0713 ± 0.079
- R104Q — within error, 1.21 ± 0.56
- L80W — higher, 1.47 ± 0.25
- L80R — lower, 0.408 ± 0.11
- R147M — within error, 1.06 ± 0.58
- L182D — lower, 0.257 ± 0.33
- Q382L — within error, 1.34 ± 0.28
- Q170T — lower, 0.156 ± 0.35
- A377S — within error, 1.24 ± 0.24
- A377R — higher, 1.6 ± 0.26
- P179T — within error, 0.709 ± 0.13
- D207E — within error, 1.48 ± 0.51
- K262M — within error, 1.17 ± 0.86
- K262W — within error, 1.05 ± 0.19
- S299F — lower, 0.544 ± 0.1
- S299C — within error, 1.3 ± 0.2
- K403C — within error, 0.656 ± 0.13
